The results in this text go back to IntAct's records for PubMed 21245303.

The labels stand for the following.
B1: Segment polarity protein dishevelled homolog DVL-2 (Homo sapiens), O14641 (parent)
chain: MAGSSTGGGGVGETKVIYHLDEEETPYLVKIPVPAERITLGDFKSVLQRPAGAKYFFKSMDQDFGVVKEEISDDNARLPCFNGRVVSWLVSSDNPQPEMAPPVHEPRAELAPPAPPLPPLPPERTSGIGDSRPPSFHPNVSSSHENLEPETETESVVSLRRERPRRRDSSEHGAGGHRTGGPSRLERHLAGYESSSTLMTSELESTSLGDSDEEDTMSRFSSSTEQSSASRLLKRHRRRRKQRPPRLERTSSFSSVTDSTMSLNIITVTLNMEKYNFLGISIVGQSNERGDGGIYIGSIMKGGAVAADGRIEPGDMLLQVNDMNFENMSNDDAVRVLRDIVHKPGPIVLTVAKCWDPSPQAYFTLPRNEPIQPIDPAAWVSHSAALTGTFPAYPGSSSMSTITSGSSLPDGCEGRGLSVHTDMASVTKAMAAPESGLEVRDRMWLKITIPNAFLGSDVVDWLYHHVEGFPERREARKYASGLLKAGLIRHTVNKITFSEQCYYVFGDLSGGCESYLVNLSLNDNDGSSGASDQDTLAPLPGATPWPLLPTFSYQYPAPHPYSPQPPPYHELSSYTYGGGSASSQHSEGSRSSGSTRSDGGAGRTGRPEERAPESKSGSGSESEPSSRGGSLRRGGEASGTSDGGPPPSRGSTGGAPNLRAHPGLHPYGPPPGMALPYNPMMVVMMPPPPPPVPPAVQPPGAPPVRDLGSVPPELTASRQSFHMAMGNPSEFFVDVM

In the experiment the parent is B1. Particulars: with axin1_human AXIN1, O15169.
axin1_human AXIN1, O15169, sequence (O15169 whole entry): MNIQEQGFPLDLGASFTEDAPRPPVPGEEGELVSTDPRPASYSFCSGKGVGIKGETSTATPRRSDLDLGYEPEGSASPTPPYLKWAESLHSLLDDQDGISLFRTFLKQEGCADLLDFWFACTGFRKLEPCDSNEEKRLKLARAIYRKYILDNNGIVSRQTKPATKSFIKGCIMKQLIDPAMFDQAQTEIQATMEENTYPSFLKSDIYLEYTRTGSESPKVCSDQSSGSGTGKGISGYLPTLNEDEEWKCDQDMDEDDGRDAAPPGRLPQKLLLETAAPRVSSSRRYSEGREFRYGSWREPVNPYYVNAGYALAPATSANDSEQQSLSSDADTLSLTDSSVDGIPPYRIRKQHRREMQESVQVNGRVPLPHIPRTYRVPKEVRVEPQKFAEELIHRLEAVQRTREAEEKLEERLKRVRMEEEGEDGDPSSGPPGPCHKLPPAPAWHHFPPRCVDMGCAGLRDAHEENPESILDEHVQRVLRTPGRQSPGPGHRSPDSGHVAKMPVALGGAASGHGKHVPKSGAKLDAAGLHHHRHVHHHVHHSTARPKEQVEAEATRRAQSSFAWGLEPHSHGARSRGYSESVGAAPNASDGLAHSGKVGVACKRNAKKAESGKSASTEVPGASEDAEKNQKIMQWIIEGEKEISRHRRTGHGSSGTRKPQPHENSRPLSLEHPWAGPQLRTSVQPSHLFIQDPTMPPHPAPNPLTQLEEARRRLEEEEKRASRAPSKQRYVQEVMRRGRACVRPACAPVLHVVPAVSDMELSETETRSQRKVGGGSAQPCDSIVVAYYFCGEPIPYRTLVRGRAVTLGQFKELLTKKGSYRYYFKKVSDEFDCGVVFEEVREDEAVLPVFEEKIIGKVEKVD
Regarding Y27D, the “effect of a mutation on the interaction” value is listed as “disrupting interaction strength”.
